Laboratory results taken from patent US20220204649A1 (SYSMEX, published 2022).
Where a chain is given by its changes, count along the chain named.

B1: 72, 77, 79 variant of humanized anti-HER2 antibody (Fab) (Fab, V domains shown)
VH: EVQLVESGGGLVQPGGSLRLSCAASGFNIKDTYIHWVRQAPGKGLEWVARIYPTNGYTRYADSVKGRFTISARTSKNRARLQMNSLRAEDTAVYYCSRWGGDGFYAMDYWGQGTLVTVSS
VL: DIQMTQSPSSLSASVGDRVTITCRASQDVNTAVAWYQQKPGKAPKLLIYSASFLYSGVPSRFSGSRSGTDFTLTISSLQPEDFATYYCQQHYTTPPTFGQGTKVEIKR
notes: also called Heavy chain 72, 77, 79 variant
B2: light chain 63, 65, 67/heavy chain 82B, 83, 84 variant of the anti-HER2 antibody (Fab, V domains shown)
VH: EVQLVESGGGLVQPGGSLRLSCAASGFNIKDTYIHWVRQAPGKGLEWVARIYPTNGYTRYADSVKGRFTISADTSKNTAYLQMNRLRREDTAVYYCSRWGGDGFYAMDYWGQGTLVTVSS
VL: DIQMTQSPSSLSASVGDRVTITCRASQDVNTAVAWYQQKPGKAPKLLIYSASFLYSGVPSRFRGRRRGTDFTLTISSLQPEDFATYYCQQHYTTPPTFGQGTKVEIKR
B3: light chain 63, 65, 67/heavy chain 72, 77, 79 variant of the anti-HER2 antibody (Fab, V domains shown)
VH: B1 VH
VL: B2 VL
B4: 68, 70, 72 variant of humanized anti-HER2 antibody (Fab) (Fab, V domains shown)
VH: B1 VH with T69R, S71R, R78T, R80Y
VL: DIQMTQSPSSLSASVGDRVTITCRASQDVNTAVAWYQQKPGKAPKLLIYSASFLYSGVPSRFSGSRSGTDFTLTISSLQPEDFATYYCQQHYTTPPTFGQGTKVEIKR
B5: 74, 75, 77 variant of humanized anti-HER2 antibody (Fab) (Fab, V domains shown)
VH: B1 VH with R73D, S75R, K76R, R80Y
VL: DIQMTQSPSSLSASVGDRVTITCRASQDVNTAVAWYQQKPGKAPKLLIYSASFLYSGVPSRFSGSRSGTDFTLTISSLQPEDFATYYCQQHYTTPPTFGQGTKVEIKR
B6: 79, 81, 82A variant of humanized anti-HER2 antibody (Fab) (Fab, V domains shown)
VH: B1 VH with R73D, R78T, Q82R, N84R
VL: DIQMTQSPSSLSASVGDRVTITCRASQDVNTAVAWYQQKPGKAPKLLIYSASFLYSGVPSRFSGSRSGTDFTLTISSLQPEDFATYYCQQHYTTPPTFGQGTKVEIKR
B7: 84, 85, 87 variant of humanized anti-HER2 antibody (Fab) (Fab, V domains shown)
VH: B1 VH with R73D, R78T, R80Y, A88R, E89R, T91R
VL: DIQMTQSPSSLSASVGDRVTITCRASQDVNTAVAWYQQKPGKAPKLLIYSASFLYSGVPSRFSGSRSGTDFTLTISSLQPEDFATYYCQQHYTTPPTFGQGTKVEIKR

Target: T1, HER2 (UniProt P04626 23-652, limits assumed)
T1 construct: also called antigen of the anti-HER2 antibody
Assay: SPR (Biacore 8K), Example 3, as in Example 1
Experimental: (§1) Affinity of the prepared variants was measured using Biacore (registered trademark) 8K (GE Healthcare) in the same manner as in Example 1.

| Binder | Kd [nM] |
| --- | --- |
| B1 | 0.0321 |
| B2 | 0.0357 |
| B3 | 0.0126 |

Target: T1, HER2
Assay: SPR (Biacore 8K), as in Example 1
Experimental: as §1

| Binder | Kd [nM] |
| --- | --- |
| B4 | 0.0208 |
| B5 | 0.0443 |
| B1 | 0.00505 |
| B6 | 0.0338 |
| B7 | 0.0211 |
